Molecular target: Toll-like Receptor 5 (UniProt O60602)
Experiment: cell-based or functional assay

B1: STF2.HA1-1His(PR8), produced in Baculovirus (protein)
chain: AQVINTNSLSLLTQNNLNKSQSALGTAIERLSSGLRINSAKDDAAGQAIANRFTANIKGLTQASRNANDGISIAQTTEGALNEINNNLQRVRELAVQSANSTNSQSDLDSIQAEITQRLNEIDRVSGQTQFNGVKVLAQDNTLTIQVGANDGETIDIDLKQINSQTLGLDSLNVQKAYDVKDTAVTTKAYANNGTTLDVSGLDDAAIKAATGGTNGTASVTGGAVKFDADNNKYFVTIGGFTGADAAKNGDYEVNVATDGTVTLAAGATKTTMPAGATTKTEVQELKDTPAVVSADAKNALIAGGVDATDANGAELVKMSYTDKNGKTIEGGYALKAGDKYYAADYDEATGAIKAKTTSYTAADGTTKTAANQLGGVDGKTEVVTIDGKTYNASKAAGHDFKAQPELAEAAAKTTENPLQKIDAALAQVDALRSDLGAVQNRFNSAITNLGNTVNNLSEARSRIEDSDYATEVSNMSRAQILQQAGTSVLAQANQVPQNVLSLLASGSGSGSSHNGKLCRLKGIAPLQLGKCNIAGWLLGNPECDPLLPVRSWSYIVETPNSENGICYPGDFIDYEELREQLSSVSSFERFEIFPKESSWPNHNTNGVTAACSHEGKSSFYRNLLWLTEKEGSYPKLKNSYVNKKGKEVLVLWGIHHPPNSKEQQNLYQNENAYVSVVTSNYNRRFTPEIAERPKVRDQAGRMNYYWTLLKPGDTIIFEANGNLIAPMYAFALSRGFGSGIITSNASMHECNTKCQTPLGAINSSLPYQNIHPVTIGECPKYVRHHHHHH
TLR activity (EC50, ng/ml); IL-8 secretion by HEK293 cells: 3 ng/mL

From patent US20070224205A1
